Test results reported in US20170101454A1 (Novo Nordisk, published 2017).
Starred links: 1 amine or outer side, 2 acyl side, 3 side chain; linkers in the order of their positions; H or OH if unused. Non-standard residues stand in square brackets, D forms with d. Groups on a side chain read outwards from the residue. No end group written: not given here. *: point of attachment. C18 diacid = O=C(O)CCCCCCCCCCCCCCCCC(=O)*; γGlu = O=C(O)[C@H](CCC(=O)[*:2])N[*:1]; Ac4c = NC1(C(=O)O)CCC1; AEEA = NCCOCCOCC(=O)O; Aib = CC(C)(N)C(=O)O

Key:
[1] = target: T1, human GLP-1 receptor (human, UniProt P43220 24-463); assay: displacement of [125I]-GLP-1-(7-36)NH2 from BHK membranes with human GLP-1R, SPA, no serum albumin
T1 construct: whole, on cells; reporter assay used whole cells

[2] = target: T2, human glucagon receptor (human, UniProt P47871 26-477); assay: displacement of [125I]-glucagon from BHK membranes with human glucagon receptor, SPA, no serum albumin
T2 construct: whole, on cells; reporter assay used whole cells; also called hGCGR
T2 sequence (P47871 26-477): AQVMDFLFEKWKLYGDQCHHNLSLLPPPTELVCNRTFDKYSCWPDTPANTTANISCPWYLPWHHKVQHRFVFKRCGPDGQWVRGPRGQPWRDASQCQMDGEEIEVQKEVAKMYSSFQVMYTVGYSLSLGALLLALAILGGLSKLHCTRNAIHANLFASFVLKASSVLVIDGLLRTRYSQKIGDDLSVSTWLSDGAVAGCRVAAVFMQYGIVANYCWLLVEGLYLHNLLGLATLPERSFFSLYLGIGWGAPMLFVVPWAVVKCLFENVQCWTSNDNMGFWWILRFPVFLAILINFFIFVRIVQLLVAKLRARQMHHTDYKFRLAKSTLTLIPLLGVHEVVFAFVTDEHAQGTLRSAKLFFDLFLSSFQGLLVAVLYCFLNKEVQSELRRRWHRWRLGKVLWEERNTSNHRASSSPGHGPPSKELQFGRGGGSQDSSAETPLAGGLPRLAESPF

[3] = target: T2, human glucagon receptor; assay: cell-based or functional assay
[4] = target: T1, human GLP-1 receptor; assay: cell-based or functional assay

Row | Binder | IC50 [1] [nM] | IC50 [2] [nM] | GlucagonR EC50 (pM), [Assay (I)(b)], CRE luciferase reporter, BHK cells [3] [pM] | GLP-1R EC50 (pM) [Assay (I)(a)], CRE luciferase reporter, BHK cells [4] [pM]
1 | H[Aib]QGTFTSDLSKYLDLRRARDFVQWLINK([γGlu-γGlu-AEEA-AEEA-γGlu-C18 diacid])-NH2 (N-terminus assumed; SMILES CC[C@H](C)[C@H](NC(=O)[C@H](CC(C)C)NC(=O)[C@H](Cc1c[nH]c2ccccc12)NC(=O)[C@H](CCC(N)=O)NC(=O)[C@@H](NC(=O)[C@H](Cc1ccccc1)NC(=O)[C@H](CC(=O)O)NC(=O)[C@H](CCCNC(=N)N)NC(=O)[C@H](C)NC(=O)[C@H](CCCNC(=N)N)NC(=O)[C@H](CCCNC(=N)N)NC(=O)[C@H](CC(C)C)NC(=O)[C@H](CC(=O)O)NC(=O)[C@H](CC(C)C)NC(=O)[C@H](Cc1ccc(O)cc1)NC(=O)[C@H](CCCCN)NC(=O)[C@H](CO)NC(=O)[C@H](CC(C)C)NC(=O)[C@H](CC(=O)O)NC(=O)[C@H](CO)NC(=O)[C@@H](NC(=O)[C@H](Cc1ccccc1)NC(=O)[C@@H](NC(=O)CNC(=O)[C@H](CCC(N)=O)NC(=O)C(C)(C)NC(=O)[C@@H](N)Cc1c[nH]cn1)[C@@H](C)O)[C@@H](C)O)C(C)C)C(=O)N[C@@H](CC(N)=O)C(=O)N[C@@H](CCCCNC(=O)CC[C@H](NC(=O)CC[C@H](NC(=O)COCCOCCNC(=O)COCCOCCNC(=O)CC[C@H](NC(=O)CCCCCCCCCCCCCCCCC(=O)O)C(=O)O)C(=O)O)C(=O)O)C(N)=O) | 0.3 | 83.2 |  | 
2 | H[Aib]QGTFTSDLSKYLDLRRAREFVQWLISK([γGlu-γGlu-AEEA-AEEA-γGlu-C18 diacid])-NH2 (N-terminus assumed; SMILES CC[C@H](C)[C@H](NC(=O)[C@H](CC(C)C)NC(=O)[C@H](Cc1c[nH]c2ccccc12)NC(=O)[C@H](CCC(N)=O)NC(=O)[C@@H](NC(=O)[C@H](Cc1ccccc1)NC(=O)[C@H](CCC(=O)O)NC(=O)[C@H](CCCNC(=N)N)NC(=O)[C@H](C)NC(=O)[C@H](CCCNC(=N)N)NC(=O)[C@H](CCCNC(=N)N)NC(=O)[C@H](CC(C)C)NC(=O)[C@H](CC(=O)O)NC(=O)[C@H](CC(C)C)NC(=O)[C@H](Cc1ccc(O)cc1)NC(=O)[C@H](CCCCN)NC(=O)[C@H](CO)NC(=O)[C@H](CC(C)C)NC(=O)[C@H](CC(=O)O)NC(=O)[C@H](CO)NC(=O)[C@@H](NC(=O)[C@H](Cc1ccccc1)NC(=O)[C@@H](NC(=O)CNC(=O)[C@H](CCC(N)=O)NC(=O)C(C)(C)NC(=O)[C@@H](N)Cc1c[nH]cn1)[C@@H](C)O)[C@@H](C)O)C(C)C)C(=O)N[C@@H](CO)C(=O)N[C@@H](CCCCNC(=O)CC[C@H](NC(=O)CC[C@H](NC(=O)COCCOCCNC(=O)COCCOCCNC(=O)CC[C@H](NC(=O)CCCCCCCCCCCCCCCCC(=O)O)C(=O)O)C(=O)O)C(=O)O)C(N)=O) | 0.9 | 71.2 |  | 
3 | H[Aib]QGTFTSDLSKYLDLRRAREFVQWLINK([γGlu-γGlu-AEEA-AEEA-γGlu-C18 diacid])-NH2 (N-terminus assumed; SMILES CC[C@H](C)[C@H](NC(=O)[C@H](CC(C)C)NC(=O)[C@H](Cc1c[nH]c2ccccc12)NC(=O)[C@H](CCC(N)=O)NC(=O)[C@@H](NC(=O)[C@H](Cc1ccccc1)NC(=O)[C@H](CCC(=O)O)NC(=O)[C@H](CCCNC(=N)N)NC(=O)[C@H](C)NC(=O)[C@H](CCCNC(=N)N)NC(=O)[C@H](CCCNC(=N)N)NC(=O)[C@H](CC(C)C)NC(=O)[C@H](CC(=O)O)NC(=O)[C@H](CC(C)C)NC(=O)[C@H](Cc1ccc(O)cc1)NC(=O)[C@H](CCCCN)NC(=O)[C@H](CO)NC(=O)[C@H](CC(C)C)NC(=O)[C@H](CC(=O)O)NC(=O)[C@H](CO)NC(=O)[C@@H](NC(=O)[C@H](Cc1ccccc1)NC(=O)[C@@H](NC(=O)CNC(=O)[C@H](CCC(N)=O)NC(=O)C(C)(C)NC(=O)[C@@H](N)Cc1c[nH]cn1)[C@@H](C)O)[C@@H](C)O)C(C)C)C(=O)N[C@@H](CC(N)=O)C(=O)N[C@@H](CCCCNC(=O)CC[C@H](NC(=O)CC[C@H](NC(=O)COCCOCCNC(=O)COCCOCCNC(=O)CC[C@H](NC(=O)CCCCCCCCCCCCCCCCC(=O)O)C(=O)O)C(=O)O)C(=O)O)C(N)=O, also called Chem. 22; Chem 22) | 0.3 | 67.3 |  | 
4 | H[Aib]QGTFTSDLSKYLDLRRARDFVQWLISK([γGlu-γGlu-AEEA-AEEA-γGlu-C18 diacid])-NH2 (N-terminus assumed; SMILES CC[C@H](C)[C@H](NC(=O)[C@H](CC(C)C)NC(=O)[C@H](Cc1c[nH]c2ccccc12)NC(=O)[C@H](CCC(N)=O)NC(=O)[C@@H](NC(=O)[C@H](Cc1ccccc1)NC(=O)[C@H](CC(=O)O)NC(=O)[C@H](CCCNC(=N)N)NC(=O)[C@H](C)NC(=O)[C@H](CCCNC(=N)N)NC(=O)[C@H](CCCNC(=N)N)NC(=O)[C@H](CC(C)C)NC(=O)[C@H](CC(=O)O)NC(=O)[C@H](CC(C)C)NC(=O)[C@H](Cc1ccc(O)cc1)NC(=O)[C@H](CCCCN)NC(=O)[C@H](CO)NC(=O)[C@H](CC(C)C)NC(=O)[C@H](CC(=O)O)NC(=O)[C@H](CO)NC(=O)[C@@H](NC(=O)[C@H](Cc1ccccc1)NC(=O)[C@@H](NC(=O)CNC(=O)[C@H](CCC(N)=O)NC(=O)C(C)(C)NC(=O)[C@@H](N)Cc1c[nH]cn1)[C@@H](C)O)[C@@H](C)O)C(C)C)C(=O)N[C@@H](CO)C(=O)N[C@@H](CCCCNC(=O)CC[C@H](NC(=O)CC[C@H](NC(=O)COCCOCCNC(=O)COCCOCCNC(=O)CC[C@H](NC(=O)CCCCCCCCCCCCCCCCC(=O)O)C(=O)O)C(=O)O)C(=O)O)C(N)=O) | 1 | 64.7 |  | 
5 | H[Aib]QGTFTSDLSKYLDLRRARDFVAWLISK([γGlu-γGlu-AEEA-AEEA-γGlu-C18 diacid])-NH2 (N-terminus assumed; SMILES CC[C@H](C)[C@H](NC(=O)[C@H](CC(C)C)NC(=O)[C@H](Cc1c[nH]c2ccccc12)NC(=O)[C@H](C)NC(=O)[C@@H](NC(=O)[C@H](Cc1ccccc1)NC(=O)[C@H](CC(=O)O)NC(=O)[C@H](CCCNC(=N)N)NC(=O)[C@H](C)NC(=O)[C@H](CCCNC(=N)N)NC(=O)[C@H](CCCNC(=N)N)NC(=O)[C@H](CC(C)C)NC(=O)[C@H](CC(=O)O)NC(=O)[C@H](CC(C)C)NC(=O)[C@H](Cc1ccc(O)cc1)NC(=O)[C@H](CCCCN)NC(=O)[C@H](CO)NC(=O)[C@H](CC(C)C)NC(=O)[C@H](CC(=O)O)NC(=O)[C@H](CO)NC(=O)[C@@H](NC(=O)[C@H](Cc1ccccc1)NC(=O)[C@@H](NC(=O)CNC(=O)[C@H](CCC(N)=O)NC(=O)C(C)(C)NC(=O)[C@@H](N)Cc1c[nH]cn1)[C@@H](C)O)[C@@H](C)O)C(C)C)C(=O)N[C@@H](CO)C(=O)N[C@@H](CCCCNC(=O)CC[C@H](NC(=O)CC[C@H](NC(=O)COCCOCCNC(=O)COCCOCCNC(=O)CC[C@H](NC(=O)CCCCCCCCCCCCCCCCC(=O)O)C(=O)O)C(=O)O)C(=O)O)C(N)=O) | 1.1 | 144 |  | 

The next binders have a lower IC50 [2] than those just listed; values first:

Row | IC50 [1] [nM] | IC50 [2] [nM] | GlucagonR EC50 (pM), [Assay (I)(b)], CRE luciferase reporter, BHK cells [3] [pM] | GLP-1R EC50 (pM) [Assay (I)(a)], CRE luciferase reporter, BHK cells [4] [pM] | Binder
6 | 2.2 | 60 |  |  | H[Aib]QGTFTSDYSKYLESRRAQDFVAWLISK([γGlu-γGlu-AEEA-AEEA-γGlu-C18 diacid])-NH2 (N-terminus assumed; SMILES CC[C@H](C)[C@H](NC(=O)[C@H](CC(C)C)NC(=O)[C@H](Cc1c[nH]c2ccccc12)NC(=O)[C@H](C)NC(=O)[C@@H](NC(=O)[C@H](Cc1ccccc1)NC(=O)[C@H](CC(=O)O)NC(=O)[C@H](CCC(N)=O)NC(=O)[C@H](C)NC(=O)[C@H](CCCNC(=N)N)NC(=O)[C@H](CCCNC(=N)N)NC(=O)[C@H](CO)NC(=O)[C@H](CCC(=O)O)NC(=O)[C@H](CC(C)C)NC(=O)[C@H](Cc1ccc(O)cc1)NC(=O)[C@H](CCCCN)NC(=O)[C@H](CO)NC(=O)[C@H](Cc1ccc(O)cc1)NC(=O)[C@H](CC(=O)O)NC(=O)[C@H](CO)NC(=O)[C@@H](NC(=O)[C@H](Cc1ccccc1)NC(=O)[C@@H](NC(=O)CNC(=O)[C@H](CCC(N)=O)NC(=O)C(C)(C)NC(=O)[C@@H](N)Cc1c[nH]cn1)[C@@H](C)O)[C@@H](C)O)C(C)C)C(=O)N[C@@H](CO)C(=O)N[C@@H](CCCCNC(=O)CC[C@H](NC(=O)CC[C@H](NC(=O)COCCOCCNC(=O)COCCOCCNC(=O)CC[C@H](NC(=O)CCCCCCCCCCCCCCCCC(=O)O)C(=O)O)C(=O)O)C(=O)O)C(N)=O)
7 |  | 2.7 | 13 | 5 | H[Ac4c]QGTFTSDLSKYLESRRAREFVQWLIK([Gly-Ser-Glu-Gly-Ser-γGlu-γGlu-C18 diacid])T-NH2 (also called Chem. 16; Chem 16)
8 |  | 2.5 | 37 | 6 | H[Ac4c]QGTFTSDVSKYLESRRAREFVQWLIK([γGlu-γGlu-AEEA-AEEA-γGlu-γGlu-C18 diacid])T-NH2 (N-terminus assumed; SMILES CC[C@H](C)[C@H](NC(=O)[C@H](CC(C)C)NC(=O)[C@H](Cc1c[nH]c2ccccc12)NC(=O)[C@H](CCC(N)=O)NC(=O)[C@@H](NC(=O)[C@H](Cc1ccccc1)NC(=O)[C@H](CCC(=O)O)NC(=O)[C@H](CCCNC(=N)N)NC(=O)[C@H](C)NC(=O)[C@H](CCCNC(=N)N)NC(=O)[C@H](CCCNC(=N)N)NC(=O)[C@H](CO)NC(=O)[C@H](CCC(=O)O)NC(=O)[C@H](CC(C)C)NC(=O)[C@H](Cc1ccc(O)cc1)NC(=O)[C@H](CCCCN)NC(=O)[C@H](CO)NC(=O)[C@@H](NC(=O)[C@H](CC(=O)O)NC(=O)[C@H](CO)NC(=O)[C@@H](NC(=O)[C@H](Cc1ccccc1)NC(=O)[C@@H](NC(=O)CNC(=O)[C@H](CCC(N)=O)NC(=O)C1(NC(=O)[C@@H](N)Cc2c[nH]cn2)CCC1)[C@@H](C)O)[C@@H](C)O)C(C)C)C(C)C)C(=O)N[C@@H](CCCCNC(=O)CC[C@H](NC(=O)CC[C@H](NC(=O)COCCOCCNC(=O)COCCOCCNC(=O)CC[C@H](NC(=O)CC[C@H](NC(=O)CCCCCCCCCCCCCCCCC(=O)O)C(=O)O)C(=O)O)C(=O)O)C(=O)O)C(=O)N[C@H](C(N)=O)[C@@H](C)O, also called Chem. 19; Chem 19)
